The nanobody polyreactivity screen of Harvey et al. (2022)

Assay: yeast display, Sf9 membrane polyspecificity reagent, FACS + sequencing; frameworks hold sequencing errors
In short: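 After 36–48 hours of galactose induction, yeast (Saccharomyces cerevisiae BJ5465) displaying a synthetic nanobody library were stained at 4 °C for 1 hour with 10% biotinylated, detergent-solubilized Sf9 membrane reagent. Streptavidin microbeads enriched the stained cells before FACS sorting into low and high (top ~1%) gates on anti-HA and streptavidin fluorescence. Each clone's polyreactivity label reflects its gate of origin.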

| Sequence | polyreactivity (PSR sort gate) |
| --- | --- |
| QVQLVEAGGGLVQAGGSLRLSCAASGYIFAYYAMGWYRQAPGKERELVATIRSGGSTNYADSVKGRFTISRDNGKNTVYLQMNSLKPEDTAVYYCARDDATAGDYWGQGTQVTVSS | low polyreactivity |
| QVQLVEAGGGLVQAGGSLRLSCASSGRIFPFNAMGRYRQAPGKEREFVAAIRLSGTRKYYADSVKGRFTISRDNAKNTVYLQMNSLKPEDTAVYYCAAKYSGHYYNYDYWGQGTQVTVSS | high polyreactivity |
| QVQLVEAGGGLVQAGGTLRLSCAASGSNFSENTMGWYRPAPGKKRELVADITSGGSTNYADSVKGRFTISRDNAKNTVYLQMNSMKAEVTAVYYCAADYNGEYDYWGQGSQVTVSS | low polyreactivity |
| QVQLVELGGGLVQAGGSLRLSCAASGLTLYYYAMGWYRQEPGKERELVAAINRGGSTYYADSVKGRFTISRDNAKNTVYLQMNSLKPEATAVYYCAVDYGVRDLTYYYWGQGTQVTVSS | low polyreactivity |
| QVQLVESAAGLVQAGGSLRLSCAASGFIFWYYAMGWSRQAPGKERELVAAINSSGGSTYYADSVKGRFSISRDNAKNTVYLQMNSLKPEDSAVYYCAARAYQRGNYWGQGTQVTVSS | high polyreactivity |
| QVQLVESAAGLVQAGGSLRLSCAASGLNFASYGMGGYRQAPGKERELVAAISSSVGNTYYADSVKGRFTISRDYAKNTVYLQMNSLNPEDTAVYYCAAAKRSGYTGFKYYYWGQGTQVTVSS | high polyreactivity |
| QVQLVESAAGLVQAGGSLRLSCAASGSTFAGNAMGWYRQAPGKERELVAAIDSSTGSTYYADSVKGRFTISRDNAKNTVYLQMNSLKPEDTAVYYCNKTSFLVKLDYWGQGTQVTVSS | low polyreactivity |
| QVQLVESAAGLVQAGGSLRLTCAASGLTFTTYAKGWYTQSPRKDRELVAAISRRGSRTYYADSVKGRFTISRDNAKNTVYLQMQSLKPDDTAVYYCNALTGSFKTDSFDYWGQGTQVTVSS | high polyreactivity |
| QVQLVESAAGLVQAVGSHRLSCAASRLTFGFYAMGSDRQARGKESELVAAIDFSDGSTYYADSVKGRFTISRDNAKKTVYLQMNSLKPEDTAVYYCAADDPGLGYWSLTWYDYWGQGTQVTVSS | high polyreactivity |
| QVQLVESAAVLVQAGGRLRLSCADSGRIFTDNGMGWYRQAPGKERELVAAISESGGSTYYADSVKGRFTISRDNAKNTVYLQMNSLKPEDTAVYYCAADLYWYGYHYDYWGQGTQVTVSS | low polyreactivity |
| QVQLVESAGALVQEGGSLRLICAASGFTFLKNAMGWYRQAPGKERELVDGISRSGGSTYYADSVKRRFTISRDKAKNPDYLQMNSQKPEDPAVYYCAAGTVQSYTWLPTRGDYWGQGSQVTVSS | high polyreactivity |
| QVQLVESAGCLVQAGGSLRLSCAASGRTFAVYAMGWSRPAPGKQREMVAAITLGASRSYYADSVKGRFTISRDNAKNTVYLQMNRLKPEDSAVYYWNDVGRLNVDSYLNDYWGKGTQVTVSS | low polyreactivity |
| QVQLVESAGCLVQAGGSLRLSCAASGSIISAYARGWYRQAPGKERQLVAAITRSGGSTYYADSVKGRFTISRDYAKITVYLQMNSLKPEDTAVYYCAARSYVHVFVRMYYWGQGTQVTVSS | high polyreactivity |
| QVQLVESAGGIVQAGGSLRLSCDASGSIFYYYAMGWYRQAPGKERELVADISYRGSRTFYADSVKGLFTISRDIAKNTVYLQMNSLKPEDTEVYYCAAAYSRYTSRFYYWGQGTQVTVSS | high polyreactivity |
| QVQLVESAGGLDQAGGSLRLICAASGGTFSFYAMGWYRHAPGKEREFVAAITASDGSTYADSVKGRFTISRDNAKNTVYLQMNSLKPEDTAVYYCAVAGGEFSSYGYWGQGTQVTVSS | low polyreactivity |
| QVQLVESAGGLDQAGGSLRLICDASGFISRNAMGWYTQAPGKERELVAAITRGGSTNYADSVKGRFTISRDNAKNTVYLQMNSLKPEDSAVYYCNQQRQGNSRSYYQTYYGMYYWGQGTQVTVSS | high polyreactivity |
| QVQLVESAGGLGQAGGSLRLSSAASGITTRTYAMGWYRQARGNERELVAAISDSGDRTYYADSVKGRFTISRDNAKNTVYLQMNSLKPEETAVYYCAVHAPGPRCEYWGQGTQVTVSS | low polyreactivity |
| QVQLVESAGGLVHARGSLRLSCAASGRIFERNAMGSYRQAPGKERELVARITSGGGTYYADSVKGRFTISRDNAKNTVYLQMNSLKPEDTAVYYCAVQYLYRKYRRYDYWGLGTQVTVSS | high polyreactivity |
| QVQLVESAGGLVPAGGSLRLSCAASGSIIITKAMGWYRQAPGKERELVAAISWTDDITYYADSVKGRFTISRDNAKNTVYLQMNSLKPEDTAVYYCAAEETSYAYDYWGQGTQVTVSS | low polyreactivity |
| QVQLVESAGGLVQAAASLRLSCADSGITFVVYTMGWYRQAPGKERELVASISISGDSTNYADSVKGRFTISRDNAKNTVYLQMNSLKPEDTAVYYCNAAFYHFQFPWIAYDYWGQGTQVTVSS | low polyreactivity |
| QVQLVESAGGLVQAGASLRLSCAASGYIFFGNAMGWYRQAPGKERELVAAIRWRGTSTYYADSVKGRFTISRDNAKNTVYLQMNSLKPEDSAVYYCAADVVRSNFYGTFLYDYDYWGQGTQVTVSS | low polyreactivity |
| QVQLVESAGGLVQAGGILRLSCAASGITIYRYAMGWYRQAPGKERELVADISSGGGTTYYADSVKGRFTISRYNAKNTVYLQMNSQKPEDTAVYYCAADYGFRYPLYDYWGQGTQVTVSS | low polyreactivity |

| Sequence | polyreactivity (PSR sort gate) |
| --- | --- |
| QVQLVESAGGLVQAGGILRLSCAASGRTFEGNPMGWYRQAPGKERELVAAITSGGRTNYADSVKGRLTISRDNAKNTVYLQMNSLKPEDTAVYYCAATSTYRSYREYDYWGQGTQVTVSS | low polyreactivity |
| QVQLVESAGGLVQAGGRLRVSCAASGFTFTLYAMGWYRQEPGKERELVAAINRSGGRTYYADSVKGRFTISRDNAKNTVYLQKNSLKPEDTAVYYCNKYPWPNYYDGEYDYWGQGTQVTVSS | high polyreactivity |
| QVQLVESAGGLVQAGGSLRIICAASGRIFSVNSMGGYRQAPGKERELDATIRTDGTTNYADSVKGRFTISRDNAKNTVYLQMNSLQPGDPAVYYCNARIPYSWRYGYWGQGTQVTVSS | high polyreactivity |
| QVQLVESAGGLVQAGGSLRISCAASGRTFFKYAMGWYSQAPGKERELVAAITGRGGSTYADSVKGRFTISRDNAKNTVYLQINSLKPEDTSVFYCAKVYQRGAQYYYYKYDYWGQGTQVTVSS | high polyreactivity |
| QVQLVESAGGLVQAGGSLRLICAASGGTFVGYAMGWYRQAPGKERELVAAISRRGGSTYYADSVKGRFTISRDNAKNTVYLQMNSLKPEDTAVYYCAKSEHRSVPQYDYWGQGTQVTVSS | high polyreactivity |
| QVQLVESAGGLVQAGGSLRLSCAASASIFYVYSMGWSRQAPGKEREFVAAISWRGGSTYYADSVKGRFTISRDNAKNTVYLQMISLKPEDTAVFYCNGRRLGYRSGHPGYYWGQGTQVTVSS | high polyreactivity |
| QVQLVESAGGLVQAGGSLRLSCAASGFTFGENALGWYRQAPGKERELVAAIRYSGGSTYYADSVKGRFTLSRDNAKNTVYLQLNSLKAEDTAVYYCNADTYALGAAVIPGDEYWGQGTQVTVSS | low polyreactivity |
| QVQLVESAGGLVQAGGSLRLSCAASGFTFTKYAMGWYRQAPRKESELVAAISSSGYSTYYADSVKGRFTISRDNAKNTVYLQMNSLKPEDSAVYYCAARGYYSSGVDYWGQGTQVTVSS | high polyreactivity |
| QVQLVESAGGLVQAGGSLRLSCAASGFTFTYYVMGWYRQAPGKERELVAAISSGGSTYYADSVKGRFTISRDNAKNTVYLQMNSLKPEDTAVYYCAKGSGYYYRYGYWGQGTQVTVSS | high polyreactivity |
| QVQLVESAGGLVQAGGSLRLSCAASGGIFGINAMGWYRQAPGKERELVAAINLSGGRTYYADSVKGRFTISRDNAKNTVYLQMNSLKPEDTAVYYCAAFYGYSLYGHYEYWGQGTQVTVSS | high polyreactivity |
| QVQLVESAGGLVQAGGSLRLSCAASGIIFDTNAMGCYRQAPGKERELVASISKRGGSTYYADSVKGRFTISRDNAKNTVYLQMNSLKPEDTAVYYCNALRRRQYHDDYWGQGTQVTVSS | high polyreactivity |
| QVQLVESAGGLVQAGGSLRLSCAASGIIFIYYTMGWYRQAPGKERELVAVITTSGDGTYYADSVKGRFTISRDNAKNTVYFQMNSLKPEDTAVYYCAASYSTWVSSRNDYWGQGTQVTVSS | low polyreactivity |
| QVQLVESAGGLVQAGGSLRLSCAASGIIFRYYAMGWYRQAPGKERELVARITSRGGTYYADSVKGRFTISRDNAKNNVYLQMNSLKPEDTAVYYCAASYLLTHGYAYNYWGQGTQVTVSS | high polyreactivity |
| QVQLVESAGGLVQAGGSLRLSCAASGIISRWYAMGWYRQAPGKERELVAAITRGGNTYYADSVKGRFTISRDNAKNTVYLQMNSLKPEDTAVYYCAARTPSRYLYFEYDYWGQGTQVTVSS | low polyreactivity |
| QVQLVESAGGLVQAGGSLRLSCAASGITLSYNAMGWYRQAPGKERELVAAISARGGSTYYADSVKGRFTISRDNAKNTVYLQMNSLKPEVTAVYYCAAPRGWRQNKYDYWGQGTEVTVSS | high polyreactivity |
| QVQLVESAGGLVQAGGSLRLSCAASGLILHINTMGWYRQAPGKERELVAAISWSGDSTYYADSVKGRFTISRDNAKNTVYLQMNSLKPDDTAVYYCTTDYGHTYLYGYDYWGQGTQVTVSS | high polyreactivity |
| QVQLVESAGGLVQAGGSLRLSCAASGLTFVPNAMGWYRQAPGKEREFVAAISNNGGRTYYADSVKGRFTISRDNAKNTVYLEMNSLKPEDTAVYYCAKFLSPGERHSYDYWGQGTQVTVSS | high polyreactivity |
| QVQLVESAGGLVQAGGSLRLSCAASGNTFYPYAMGWYRQAPGKERELVAAITSVGRTYYADSVKGRFTITRDNAKNTVYLQMNSLKPEDTAVYYCAAVVYYRGYTYNYWGQGTQVTVSS | high polyreactivity |
| QVQLVESAGGLVQAGGSLRLSCAASGRIFRYNAMGWYRPAPGKERELVAAISSIGGRTYYADTVKGRFTISRDNAKNTVYLQMYSLKPEDTAVYSCNARGYLSRSHMHEYDYWGQGTQVTVSS | high polyreactivity |
| QVQLVESAGGLVQAGGSLRLSCAASGRIFSIYAMGWSRQAPGKERELVAAIRRGGSTSYADSVKGRFTISRDNAKNTVYLQMNSLKPEDTAVYYCAARLRYLGYDFWGQGTQVTVSS | high polyreactivity |
| QVQLVESAGGLVQAGGSLRLSCAASGRIFVRYAKGRYREAPGKVRELVAAISSSGSSTYYADSVKRRFTISRDNASNTVYLQMNSLKPEDTAVYYCNAVPSVRWRYDYWGQGTQVTVSS | high polyreactivity |
